Non-standard residues stand in square brackets, D forms with d. No end group written: not given here. Sar = CNCC(=O)O
T1: human angiotensin 2 type 1 receptor (human, UniProt P30556 1-359)
T1 sequence (looked up): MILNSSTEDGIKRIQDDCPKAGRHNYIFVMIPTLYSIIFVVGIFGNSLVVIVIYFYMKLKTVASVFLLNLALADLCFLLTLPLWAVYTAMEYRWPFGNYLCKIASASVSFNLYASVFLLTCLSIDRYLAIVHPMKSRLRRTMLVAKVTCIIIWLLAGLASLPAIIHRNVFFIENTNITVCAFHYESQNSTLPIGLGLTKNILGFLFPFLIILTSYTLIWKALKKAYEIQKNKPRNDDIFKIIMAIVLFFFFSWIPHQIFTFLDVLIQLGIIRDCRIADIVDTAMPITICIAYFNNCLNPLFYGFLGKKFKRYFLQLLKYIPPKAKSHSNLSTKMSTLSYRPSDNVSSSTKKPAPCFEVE

T2: rat angiotensin 2 type 1 receptor (rat, UniProt P25095 1-359)
T2 sequence (looked up): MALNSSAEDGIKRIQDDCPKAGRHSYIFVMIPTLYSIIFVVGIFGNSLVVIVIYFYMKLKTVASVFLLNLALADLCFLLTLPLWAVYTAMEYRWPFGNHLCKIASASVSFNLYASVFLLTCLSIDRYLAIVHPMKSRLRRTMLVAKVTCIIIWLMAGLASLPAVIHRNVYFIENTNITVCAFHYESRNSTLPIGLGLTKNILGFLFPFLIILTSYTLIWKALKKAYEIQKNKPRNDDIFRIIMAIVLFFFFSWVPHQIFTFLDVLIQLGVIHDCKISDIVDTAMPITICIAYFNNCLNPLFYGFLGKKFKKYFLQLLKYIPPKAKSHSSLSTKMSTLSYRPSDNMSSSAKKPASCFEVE

B1: SEQ ID NO: 57 (peptide)
peptide: DRVYYHP
modifications: C-terminal amide (NH2)
B2: SEQ ID NO: 61 (peptide)
peptide: DRVYYHP
modifications: N-Me-Asp (N-methyl-L-aspartic acid) at 1; C-terminal amide (NH2)
B3: SEQ ID NO: 59 (peptide)
peptide: ERVYYHP
modifications: C-terminal amide (NH2)
B4: SEQ ID NO: 55 (peptide)
peptide: [Sar]RVYVH-NH2
modifications: N-terminus assumed
SMILES: CNCC(=O)N[C@@H](CCCNC(=N)N)C(=O)N[C@H](C(=O)N[C@@H](Cc1ccc(O)cc1)C(=O)N[C@H](C(=O)N[C@@H](Cc1c[nH]cn1)C(N)=O)C(C)C)C(C)C
B5: SEQ ID NO: 62 (peptide)
peptide: ERVYYHP
modifications: N-Me-Glu (N-methyl-L-glutamic acid) at 1; C-terminal amide (NH2)
B6: SEQ ID NO: 54 (peptide)
peptide: XRVYVHP
modifications: Sar (sarcosine) at 1
B7: SEQ ID NO: 58 (peptide)
peptide: DRVYYHP
modifications: D-Asp at 1; C-terminal amide (NH2)
B8: SEQ ID NO: 56 (peptide)
peptide: DRVYIHPG-OH
B9: SEQ ID NO: 53 (peptide)
peptide: [Sar]RVY[dA]HP-NH2
modifications: N-terminus assumed
SMILES: CNCC(=O)N[C@@H](CCCNC(=N)N)C(=O)N[C@H](C(=O)N[C@@H](Cc1ccc(O)cc1)C(=O)N[C@H](C)C(=O)N[C@@H](Cc1c[nH]cn1)C(=O)N1CCC[C@H]1C(N)=O)C(C)C
B10: SEQ ID NO: 60 (peptide)
peptide: ERVYYHP
modifications: D-Glu at 1; C-terminal amide (NH2)

Legend:
[1] = target: T1, human angiotensin 2 type 1 receptor; assay: cell-based or functional assay
[2] = target: T2, rat angiotensin 2 type 1 receptor; assay: cell-based or functional assay

IP One Max (%) [1] [%] | b-arrestin2 Max (%) [1] [%] | IP One Max (%) [2] [%] | b-arrestin2 Max (%) [2] [%] | IP One EC50 (M) [1] [M] | b-arrestin2 EC50 [1] [nM] | IP One EC50 (M) [2] [M] | b-arrestin2 EC50 [2] [nM] | IP One EC50 [1] [nM] | IP One EC50 [2] [nM] | Binder
10 | 42.1 | 35.3 | 64.4 |  |  |  |  |  |  | B1
 | 37.5 |  | 60.4 | > 1e-05 | 1200 | > 1e-05 | 2100 |  |  | B2
 | 19.5 |  | 27.8 | > 1e-05 | 1400 | > 1e-05 |  |  |  | B3
97.6 | 92.7 | 98.8 | 95.6 |  | 220 |  | 42 | 96 | 6.8 | B4
 | 24.7 |  | 44.2 | > 1e-05 |  | > 1e-05 |  |  |  | B5
 | 58.6 |  | 83 | > 1e-05 | 42 | > 1e-05 | 17 |  |  | B6
 | 48.7 | 9.94 | 81.1 | > 1e-05 | 330 |  | 260 |  |  | B7
96.5 | 104 | 98.4 | 98.5 |  | 550 |  | 160 | 660 | 20 | B8
 | 33.6 |  | 12.2 | > 1e-05 | 1600 | > 1e-05 | 420 |  |  | B9
 | 44 |  | 79.3 | > 1e-05 |  | > 1e-05 | 180 |  |  | B10

Source: patent publication US20100184701A1 (TREVENA, published 2010)
